Data: patent US8796201B2 (The Board of Trustees of the Leland Stanford Junior …, priority 2002, dated 2014)

B1: FM PEP: recombinant prolyl endopeptidase from Flavobacterium meningosepticum (Genbank D10980) (protein)
chain: QNSNVLKYPETKKVSHTDTYFGTQVSDPYRWLEDDRAEDTKAWVQQEVKFTQDYLAQIPFRDQLKKQLMDIWNYEKISAPFKKGKYTYFSKNDGLQAQSVLYRKDAAGKTEVFLDPNKFSEKGTTSLASVSFNKKGTLVAYSISEGGSDWNKIIILDAETKKQLDETLLDVKFSGISWLGDEGFFYSSYDKPKEGSVLSGMTDKHKVYFHKLGTKQSQDELIIGGDKFPRRYIGAYVTDDQRYLVVSAANATNGNELYIKDLKNKTDFIPIITGFDSNVNVADTDGDTLYLFTDKDAPNKRLVKTTIQNPKAETWKDVIAETSEPLEINTGGGYFFATYMKDAIDQVKQYDKNGKLVRAIKLPGSGNASGFGGEKTEKDLYYSFTNYITPPTIFKYNVTTGNSEVYQKPKVKFNPENYVSEQVFYTSSDGTKIPMMISYKKGLKKDGKNPTILYSYGGFNISLQPAFSVVNAIWMENGGIYAVPNIRGGGEYGKKWHDAGTKMQKKNVFNDFIAAGEYLQKNGYTSKEYMALSGRSNGGLLVGATMTMRPDLAKVAFPGVGVLDMLRYNKFTAGAGWAYDYGTAEDSKEMFEYLKSYSPVHNVKAGTCYPSTMVITSDHDDRVVPAHSFKFGSELQAKQSCKNPILIRIETNAGHGAGRSTEQVVAENADLLSFALYEMGIKSLK
B2: MX PEP: novel recombinant prolyl endopeptidase from Myxococcus xanthus (Genbank AF127082, SEQ ID NO:47) (protein, listed as Myxococcus xanthus)
chain: MSYPATRAEQVVDTLHGVQVADPYRWLEDEKAPEVQTWMTAQNAHAREALAKFPGREALAARFKELFYTDSVSTPSRRNGRFFYVRTHKDKEKAILYWRQGESGQEKVLLDPNGWSKDGTVSLGTWAVSWDGKKVAFAQKPNAADEAVLHVIDVDSGEWSKVDVIEGGKYATPKWTPDSKGFYYEWLPTDPSIKVDERPGYTTIRYHTLGTEPSKDTVVHERTGDPTTFLQSDLSRDGKYLFVYILRGWSENDVYWKRPGEKDFRLLVKGVGAKYEVHAWKDRFYVLTDEGAPRQRVFEVDPAKPARASWKEIVPEDSSASLLSVSIVGGHLSLEYLKDATSEVRVATLKGKPVRTVQLPGVGAASNLMGLEDLDDAYYVFTSFTTPRQIYKTSVSTGKSELWAKVDVPMNPEQYQVEQVFYASKDGTKVPMFVVHRKDLKRDGNAPTLLYGYGGFNVNMEANFRSSILPWLDAGGVYAVANLRGGGEYGKAWHDAGRLDKKQNVFDDFHAAAEYLVQQKYTQPKRLAIYGGSNGGLLVGAAMTQRPELYGAVVCAVPLLDMVRYHLFGSGRTWIPEYGTAEKPEDFKTLHAYSPYHHVRPDVRYPALLMMAADHDDRVDPMHARKFVAAVQNSPGNPATALLRIEANAGHGGADQVAKAIESSVDLYSFLFQVLDVQGAQGGVAAQGR

What was measured:
[1] = system: LQLQPFPQPQLPYPQPQLPYPQPQLPYPQPQPF (33-mer); experiment: Hydrolysis of the 33-mer gliadin peptide by PEPs, HPLC; format: biochemical, wheat; settings: for rate of substrate (33-mer+32-mer) disappearance: 10 μM substrate; for initial hydrolytic products of the 33-mer: LC/MS/MS
Description: FIGS. 11A-11C. Hydrolysis of (SEQ ID NO:12) […] by FM PEP, MX PEP and SC PEP. (A) Time dependence of hydrolysis in the presence of 10 μM substrate and 0.1 μM enzyme. […] (B) Initial cleavage fragments observed due to hydrolysis by FM PEP (t=1 min) and MX PEP (t=5 min). (C) Summary of initial cleavage fragments from FM PEP and MX PEP catalyzed hydrolysis of the 33-mer substrate.
Substrate Specificity. In addition to the reference substrates above, enzyme specificity was also evaluated using two immunogenic peptides derived from the sequence of γ-gliadin proteins in gluten. Both peptides were synthesized using solid-phase peptide synthesis. The peptide (SEQ ID NO:4) […] contains the immunodominant γII-epitope, and is resistant to proteolysis by pepsin or any pancreatic enzyme. PEP specificity toward this substrate was assessed in a competitive assay in which 100 μM (SEQ ID NO:4) […] and 100 μM Suc-Ala-Pro-pNA were mixed and reacted with 0.02 μM PEP at 25° C. The initial velocity of Suc-Ala-Pro-pNA cleavage was measured spectrophotometrically, whereas the initial velocity of (SEQ ID NO:4) […] hydrolysis was determined via HPLC. The apparent specificity, kcat/KM, for the hydrolysis of (SEQ ID NO:4) […] could be determined based on the known kcat/KM of the enzyme for Suc-Ala-Pro-pNA and the observed reaction rates of the two substrates. […] Proteolysis reactions were performed at 37° C. in PBS buffer with 5-100 μM peptide and 0.1 μM PEP for time periods of 1 min-4 hrs.
The decrease in substrate concentration as well as concomitant intermediate and product build-up were monitored with HPLC analysis. RP-HPLC was performed on a system consisting of Beckman or Rainin Dynamax SD-200, a Varian 340 UV detector set at 215 nm and 280 nm. Solvent A was H2O with 0.1% TFA and solvent B was acetonitrile with 0.1% TFA; gradient used: 0-5% B in 0-15 min, 5-30% B in 15-30′, 30-100% B in 30-35 min, 100% B for 5′; flow 1 ml/min; separation was performed on a 4.6×150 mm reverse phase C-18 column (Vydac, Hesperia, Calif., USA). Samples were centrifuged for 10 min at 13,400 g, prior to injection of 10-100 μl. […] Thus, multiple peptides accumulate during the course of the reaction, some of which are secondary PEP substrates in themselves.
Chain Length Tolerance and Selectivity. […] Thus, the SC PEP appears to have a severe chain length restriction for long peptide substrates.

[2] = Enzyme activity vs. pH (kcat titration); format: biochemical; settings: for active site pKa: 100-4000 μM succinyl-Ala-Pro-pNA
Description: FIG. 8. Effect of pH on the turnover numbers (kcat) of FM PEP, MX PEP and SC PEP.
Activity Assays. Post-proline cleavage activity was measured using Z-Gly-Pro-p-nitroanilide and Succinyl-Ala-Pro-p-nitroanilide (Bachem, CA). Z-Gly-Pro-pNA was dissolved in a PBS:water:dioxane (8:1.2:0.8) assay mixture. The concentration of Z-Gly-Pro-pNA was varied from 100-600 μM. Although the substrate Z-Gly-Pro-pNA was effective in detecting enzyme activity, its insolubility at higher concentrations precluded kinetic measurements under substrate-saturated conditions. In contrast, Succinyl-Ala-Pro-pNA, had the advantage of high water solubility at all pH values tested, and was therefore a preferred substrate for kinetic studies. […] Reaction mixtures ([…] consisted of 30 μl of 10× pH buffer, final concentration of 0.01 μM enzyme, and Suc-Ala-Pro-pNA to final concentrations between 100 μM to 4 mM.
Enzyme Activity vs. pH. The luminal environment of the duodenum is approximately at pH 6. Therefore, a therapeutically useful PEP must retain high specific activity at that pH. The steady state turnover rate, kcat, of each PEP was titrated in various pH conditions using 100-4000 μM succinyl-Ala-Pro-pNA, shown in FIG. 8. […] Such conformational changes have been implicated in the catalytic cycle of the structurally characterized porcine brain PEP.

[3] = system: PQPQLPYPQPQLP, 33-mer and pepsin-treated gluten; experiment: Competitive proteolysis in pepsin-treated gluten with pancreatic enzymes and BBM; format: biochemical, wheat; settings: pancreatic enzymes, BBM
Description: FIGS. 13A-13B. […] This complex mixture of substrates was treated under physiological conditions with a mixture of pancreatic enzymes (trypsin, chymotrypsin, carboxypeptidase, elastase), brush border membrane enzymes (derived from rat small intestine) and either (A) FM PEP or (B) MX PEP.
The resulting solution was neutralized using 10 M NaOH and diluted to 10 g/L in a phosphate buffer (40 mM, pH 6.5). […] Prolyl endopeptidase (FM or MX; 1×: 500 mU/ml; 5×: 2.5 U/ml; 10×: 5 U/ml) and rat intestinal brush border surface membranes (BB, 1×: 40 mU/ml, 2×: 80 mU/ml, DPP IV activity) were added to a total volume of 150 μl. The mixture was incubated at 37° C. and […] aliquots were taken at 0, 5, 10, 30 and 60 min and immediately heat deactivated.

PQPQLPYPQPQLP = experiment: Competitive assay of PEP specificity for gliadin peptide versus Suc-Ala-Pro-pNA; format: biochemical, wheat; settings: PQPQLPYPQPQLP vs Suc-Ala-Pro-pNA
Description: Substrate Specificity. In addition to the reference substrates above, enzyme specificity was also evaluated using two immunogenic peptides derived from the sequence of γ-gliadin proteins in gluten. Both peptides were synthesized using solid-phase peptide synthesis. The peptide (SEQ ID NO:4) […] contains the immunodominant γII-epitope, and is resistant to proteolysis by pepsin or any pancreatic enzyme. PEP specificity toward this substrate was assessed in a competitive assay in which 100 μM (SEQ ID NO:4) […] and 100 μM Suc-Ala-Pro-pNA were mixed and reacted with 0.02 μM PEP at 25° C. The initial velocity of Suc-Ala-Pro-pNA cleavage was measured spectrophotometrically, whereas the initial velocity of (SEQ ID NO:4) […] hydrolysis was determined via HPLC. The apparent specificity, kcat/KM, for the hydrolysis of (SEQ ID NO:4) […] could be determined based on the known kcat/KM of the enzyme for Suc-Ala-Pro-pNA and the observed reaction rates of the two substrates. […]
The kcat/KM values of each PEP were determined in an assay mixture containing (SEQ ID NO:4) […] as well as Suc-Ala-Pro-pNA as a competing substrate. The rates of disappearance of both substrates were determined by independent detection methods. The initial rate of disappearance of (SEQ ID NO:4) […] was measured by HPLC, whereas the rate of consumption of Suc-Ala-Pro-pNA was measured spectrophotometrically. […]

Molecule	time to hydrolyze 10 μM of the 33-mer ([1]; 0.1 μM enzyme) [min]	rate of substrate (33-mer+32-mer) disappearance ([1]; 0.1 μM enzyme) [µM/min]	initial hydrolytic products of the 33-mer [1]	faster action on the 33-mer than the MX PEP ([1]; based on initial rates) [fold]	faster action on the 33-mer than the SC PEP ([1]; based on initial rates) [fold]	active site pKa [2]	pH optimum ([2]; as stated in the description, no method given)	relative rates of proteolysis of PQPQLPYPQPQLP, 33-mer and other gluten peptides [3]	higher specificity for the gluten peptide as compared to the chromogenic substrate (PQPQLPYPQPQLP) [fold]	time for breakdown of PQPQLPYPQPQLP and other smaller peptides [3] [min]
B1	2 to 3	2.3	yielded longer intermediates	5	> 20	~6	~7	at comparable rates	5	–
B2	–	0.43	fragments mostly of 4-5 residues	–	–	~6	–	hydrolysis of the 33-mer occurred at a slower rate	5	10
